From US20130251724A1 (GlaxoSmithKline, published 2013)
Values joined by “and” are separate entries in the source; they are usually repeats but may differ in a detail not shown here. Equal values may be shown once. Read-outs that look alike come from different tables or passages of the source.

Experiments:
Human OSM [1] = target: T1, Human OSM (human, UniProt P13725 26-221); test: BIAcore kinetics
T1 construct: Recombinant human OSM; also called hOSM; human Oncostatin M
T1 sequence: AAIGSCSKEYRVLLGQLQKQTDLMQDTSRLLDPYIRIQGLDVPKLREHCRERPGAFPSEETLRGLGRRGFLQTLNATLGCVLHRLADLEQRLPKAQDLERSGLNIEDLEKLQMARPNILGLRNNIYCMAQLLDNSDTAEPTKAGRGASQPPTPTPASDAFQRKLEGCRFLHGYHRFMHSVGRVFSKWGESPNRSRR

Cynomolgus OSM [2] = target: T2, Cynomolgus OSM (cynomolgus, UniProt A0A2K5VPC6 26-221); test: BIAcore kinetics
T2 construct: also called Cyno OSM; cynomolgus macaque OSM
T2 sequence: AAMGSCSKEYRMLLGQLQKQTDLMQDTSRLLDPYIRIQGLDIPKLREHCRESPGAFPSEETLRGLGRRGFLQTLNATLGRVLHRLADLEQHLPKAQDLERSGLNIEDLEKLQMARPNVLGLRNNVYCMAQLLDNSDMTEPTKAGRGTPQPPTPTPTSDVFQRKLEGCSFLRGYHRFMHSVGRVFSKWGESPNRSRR

Human OSM [3] = target: T1, Human OSM; test: cell-based or functional assay
Cynomolgus OSM [4] = target: T2, Cynomolgus OSM; test: cell-based or functional assay
Human OSM [5] = target: T1, Human OSM; test: human gp130 ELISA, inhibition of OSM binding to gp130
Cynomolgus OSM [6] = target: T2, Cynomolgus OSM; test: as above
[7] = target: T3, Endogenous human OSM (neutrophil-derived) (human, UniProt P13725 26-221, limits assumed); test: gp130 ELISA with endogenous neutrophil-derived human OSM
T3 construct: Native OSM generated from GM-CSF stimulation of healthy human neutrophils; also called native OSM; endogenous OSM
T3 sequence: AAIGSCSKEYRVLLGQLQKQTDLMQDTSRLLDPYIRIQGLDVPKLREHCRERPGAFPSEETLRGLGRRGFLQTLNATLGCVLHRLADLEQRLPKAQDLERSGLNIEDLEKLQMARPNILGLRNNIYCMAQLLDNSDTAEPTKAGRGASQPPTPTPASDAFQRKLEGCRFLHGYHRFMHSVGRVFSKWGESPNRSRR

Human OSM [8] = target: T1, Human OSM; test: direct ELISA, human OSM coated at 1 µg/ml, detection with anti-human IgG
Experimental: Both the 10G8 and 9G2 chimaeras successfully bound to human OSM, to a greater extent than 15E10chimera (15E10c) (FIG. 11). This was a direct ELISA where human OSM was coated at 1 μg/ml and bound antibodies detected using anti-human IgG.

Human OSM [9] = target: T1, Human OSM; test: BIAcore kinetics; remark: listed apart in the source
Cynomolgus OSM [10] = target: T2, Cynomolgus OSM; test: BIAcore kinetics; remark: listed apart in the source
Human OSM [11] = target: T1, Human OSM; test: cell-based or functional assay; remark: listed apart in the source
Cynomolgus OSM [12] = target: T2, Cynomolgus OSM; test: cell-based or functional assay; remark: listed apart in the source
Marmoset OSM = Marmoset OSM (marmoset); test: cell-based or functional assay
Human OSM [13] = target: T1, Human OSM; test: human gp130 ELISA, inhibition of OSM binding to gp130; remark: listed apart in the source
Cynomolgus OSM [14] = target: T2, Cynomolgus OSM; test: as above; remark: listed apart in the source

B1: 9G2 chimaera (antibody, human IgG1, kappa, V domains shown)
VH: EVQLVESGGGLVEPGGSLKLSCAASGFTFSNYAMSWVRQTPEKRLEWVATISDGGSFTYYLDNVKGRFTISRDNAKNNLYLQMSHLKSDDTAMYYCARDVGHTTFWYFDVWGTGTLVTVSS
VL: DIVLTQSPVFLVISLGQRATISCRASKSVSASGYNFMHWYQQKPGQPPKVLIKYASNLESGVPARFSGSGSGTDFTLNIHPVEEEDAVTYYCQHSREFPFTFGGGTKLEIKR
notes: Mouse V regions on human gamma 1 wild type and human kappa constant regions; also called 9G2 chimera
- Kd (Human OSM [1]): 1.33 nM
- koff (Human OSM [1]): 0.000168 s⁻¹
- kon (Human OSM [1]): 126000 M⁻¹ s⁻¹
- Kd (Cynomolgus OSM [2]): 0.787 nM
- koff (Cynomolgus OSM [2]): 9.99e-05 s⁻¹
- kon (Cynomolgus OSM [2]): 127000 M⁻¹ s⁻¹
- KB cell neutralisation assay, mean IC50 (Human OSM [3]): 0.231 µg/ml and 1.5 nM
- KB cell neutralisation assay, mean IC50 (Cynomolgus OSM [4]): 0.031 µg/ml and 207 pM
- IC50 (Human OSM [5]): 0.078 µg/mL and 0.52 nM
- IC50 (Cynomolgus OSM [6]): 0.028 µg/mL and 0.187 nM
- IC50 [7]: 0.017 µg/mL and 0.113 nM
- EC50 (read off the curve) (Human OSM [8]): ~0.4 nM

B2: 2B7, murine anti-OSM mAb (antibody, V domains shown)
VH: EVQLVESGGGLVKPGGSLKLSCAASGFTFSNYAMSWVRQTPEKRLEWVATISDGGGYTYYLDNGQGRFTISRDNAKNNLYLQMSHLKSEDTAMYYCARDVGLTTFWYFDVWGTGTTVTVSS
VL: DIVLTQSPVSLVISLGQRATISCRASKSVSPSSYNFMHWYQQRPGQPPKLLITYASNLESGVPARFSGSGSGTDFTLNIHPVEEEDAATYYCQHSREFPFTFGGGTRLEIK
notes: Mouse hybridoma mAb; also called 2B7/A6; 2B7.A6
- Kd (Human OSM [9]): 2.09 nM
- Kd (Cynomolgus OSM [10]): 9.31 nM
- KB cell neutralisation assay, mean IC50 (Human OSM [11]): 0.049 µg/ml and 327 pM
- KB cell neutralisation assay, mean IC50 (Cynomolgus OSM [12]): 0.344 µg/ml and 2.3 nM
- IC50 (read off the curve); IL-6 release from KB cells stimulated with marmoset OSM (Marmoset OSM): ~0.05 µg/mL
- IC50 (Human OSM [13]): 0.08 µg/mL and 0.533 nM
- IC50 (Cynomolgus OSM [14]): 0.14 µg/mL and 0.993 nM
